Molecular target: T1, MMRN2 (endogenous, HUVEC) (human, UniProt Q9H8L6 23-949)
T1 construct: Endogenous protein in HUVEC lysates (co-immunoprecipitation); also called multimerin-2
T1 sequence (looked up): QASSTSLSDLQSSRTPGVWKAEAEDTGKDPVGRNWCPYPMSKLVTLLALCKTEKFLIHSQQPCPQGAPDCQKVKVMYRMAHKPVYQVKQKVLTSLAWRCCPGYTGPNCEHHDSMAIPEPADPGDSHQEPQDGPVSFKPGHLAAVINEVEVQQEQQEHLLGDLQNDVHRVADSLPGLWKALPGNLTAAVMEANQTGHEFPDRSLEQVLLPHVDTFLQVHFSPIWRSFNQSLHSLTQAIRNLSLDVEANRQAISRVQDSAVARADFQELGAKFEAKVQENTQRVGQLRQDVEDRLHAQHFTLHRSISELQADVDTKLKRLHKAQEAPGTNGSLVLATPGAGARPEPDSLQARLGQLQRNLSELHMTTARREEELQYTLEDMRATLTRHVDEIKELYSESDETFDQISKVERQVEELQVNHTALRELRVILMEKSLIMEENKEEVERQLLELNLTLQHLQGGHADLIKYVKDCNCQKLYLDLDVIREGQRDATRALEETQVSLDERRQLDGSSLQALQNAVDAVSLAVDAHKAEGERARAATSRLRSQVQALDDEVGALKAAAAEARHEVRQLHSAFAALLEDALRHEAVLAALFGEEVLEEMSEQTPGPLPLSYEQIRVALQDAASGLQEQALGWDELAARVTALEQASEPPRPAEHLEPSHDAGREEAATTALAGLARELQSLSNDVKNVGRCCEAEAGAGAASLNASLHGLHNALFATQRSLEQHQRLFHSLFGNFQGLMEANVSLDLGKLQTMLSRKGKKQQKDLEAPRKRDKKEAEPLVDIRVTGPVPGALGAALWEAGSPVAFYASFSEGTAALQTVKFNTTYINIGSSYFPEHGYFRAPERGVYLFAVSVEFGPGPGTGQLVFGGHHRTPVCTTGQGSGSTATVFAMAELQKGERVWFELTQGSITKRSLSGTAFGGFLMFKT
Assay: flow cytometry on HUVEC
Description: FIG. 3. A distinct region of MMRN2 binds CLEC14A in the C-type lectin domain. (A) CLEC14A-ECD-Fc was used to pull down MMRN2^FL from HEK293T transfected lysates. hCLEC14A-ECD-Fc was pre-incubated with either PBS, mouse control IgG, or C1-5. […] (B) Flow cytometry analysis of CLEC14A-ECD-Fc binding to HUVEC surface. CLEC14A-ECD-Fc was pre-incubated with same conditions as in pull downs. […] Mann-Whitney test *p<0.05 n=4 error bars represent standard error mean (SEM). (C) HEK293T transfected with CLEC14A domain deletions were lysed and far western blotted with MMRN2^FL under non-reduced conditions. Upon detection of the MMRN2^FL His tag, MMRN2 binding is observed in all mutants except those lacking the CTLD or sushi domains. CLEC14A blot was included to show expression of each mutant protein. (D) Flow cytometry analysis of HEK293T transfected with chimera 1 CLEC14A^{THBD(CTLD)} or chimera 2 CLEC14A^{THBD(sushi)}. […]
HUVEC or transfected HEK293T cells were detached from tissue culture plates using cell dissociation buffer or scraped and 5×10⁵ cells were stained with 20 ug/mL of antibody of interest or 20 μg/mL of recombinant protein. […] Samples were analysed on a FACSCalibur machine (BD Biosciences). […] Isotype control staining or human Fc alone was used as background fluorescence and this was subtracted from the geometric mean fluorescence intensity of each sample. […]

B1: CLEC14A-ECD-Fc (human CLEC14A extracellular domain fused to an Fc tag) (Fc fusion)
chain: EHPTADRAGCSASGACYSLHHATMKRQAAEEACILRGGALSTVRAGAELRAVLALLRAGPGPGGGSKDLLFWVALERRRSHCTLENEPLRGFSWLSSDPGGLESDTLQWVEEPQRSCTARRCAVLQATGGVEPAGWKEMRCHLRANGYLCKYQFEVLCPAPRPGAASNLSYRAPFQLHSAALDFSPPGTEVSALCRGQLPISVTCIADEIGARWDKLSGDVLCPCPGRYLRAGKCAELPNCLDDLGGFACECATGFELGKDGRSCVTSGEGQPTLGGTGVPTRRPPATATSPVPQRTWPIRVDEKLGETPLVPEQDNSVTSIPEIPRWGSQSTMSTLQMSLQAESKATITPSGSVISKFNSTTSSATPQAFDSSS
notes: Expressed in HEK293T cells; also called hCLEC14A-ECD-Fc; C14A-Fc; not shown: human IgG Fc tag
Q: Does B1 bind?
A: binds
